B1: ZNF649 (parent)
chain: YQAGKPDALTKLEQGEPLWTLEDE
B2: LARP4 (parent)
chain: WTVANMEEIKKLTTDPDLILEVLR

Variants of: B1
Assay: protein stability index of a GFP-peptide fusion (GPS, HEK-293T) (PSI 1-6); higher = more stable
Conditions: c terminus: a fixed tail appended
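Note: lentivirally expressed fusions sorted by FACS into six bins by GFP to DsRed ratio, PSI derived from sequencing read proportions per bin multiplied by bin number.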

Variant | protein stability index
SQAGKPDALTKLEQGEPLWTLEDE [Y1S] | 5.54
GQAGKPDALTKLEQGEPLWTLEDE [Y1G] | 4.71
IQAGKPDALTKLEQGEPLWTLEDE [Y1I] | 5.01
MQAGKPDALTKLEQGEPLWTLEDE [Y1M] | 4.75
CQAGKPDALTKLEQGEPLWTLEDE [Y1C] | 5.06
PQAGKPDALTKLEQGEPLWTLEDE [Y1P] | 4.5
DQAGKPDALTKLEQGEPLWTLEDE [Y1D] | 5.21
NQAGKPDALTKLEQGEPLWTLEDE [Y1N] | 5.22
RQAGKPDALTKLEQGEPLWTLEDE [Y1R] | 5.16
TQAGKPDALTKLEQGEPLWTLEDE [Y1T] | 5.57
AQAGKPDALTKLEQGEPLWTLEDE [Y1A] | 4.88
QQAGKPDALTKLEQGEPLWTLEDE [Y1Q] | 5.46
HQAGKPDALTKLEQGEPLWTLEDE [Y1H] | 5.25
LQAGKPDALTKLEQGEPLWTLEDE [Y1L] | 4.51
WQAGKPDALTKLEQGEPLWTLEDE [Y1W] | 4.7
FQAGKPDALTKLEQGEPLWTLEDE [Y1F] | 3.39
KQAGKPDALTKLEQGEPLWTLEDE [Y1K] | 5.51
YGAGKPDALTKLEQGEPLWTLEDE [Q2G] | 4.38
YKAGKPDALTKLEQGEPLWTLEDE [Q2K] | 4.58
YIAGKPDALTKLEQGEPLWTLEDE [Q2I] | 3.29
YHAGKPDALTKLEQGEPLWTLEDE [Q2H] | 3.08
YEAGKPDALTKLEQGEPLWTLEDE [Q2E] | 5.66
YCAGKPDALTKLEQGEPLWTLEDE [Q2C] | 3.87
YLAGKPDALTKLEQGEPLWTLEDE [Q2L] | 3.1
YFAGKPDALTKLEQGEPLWTLEDE [Q2F] | 4.6
YDAGKPDALTKLEQGEPLWTLEDE [Q2D] | 5.48
YMAGKPDALTKLEQGEPLWTLEDE [Q2M] | 4.63
YAAGKPDALTKLEQGEPLWTLEDE [Q2A] | 3.68

Variants of: B2
Assay: as above
Conditions: c terminus: a fixed tail appended

Variant | protein stability index
WTVANMEEIKKLTTDPDLILEVLP [R24P] | 2.37
WTVANMEEIKKLTTDPDLILEVLD [R24D] | 2
WTVANMEEIKKLTTDPDLILEVLE [R24E] | 2.53
WTVANMEEIKKLTTDPDLILEVLF [R24F] | 1.74
WTVANMEEIKKLTTDPDLILEVLT [R24T] | 2.5
WTVANMEEIKKLTTDPDLILEVLW [R24W] | 2.31
WTVANMEEIKKLTTDPDLILEVLA [R24A] | 2.12
WTVANMEEIKKLTTDPDLILEVLI [R24I] | 2.14
WTVANMEEIKKLTTDPDLILEVLY [R24Y] | 1.57
WTVANMEEIKKLTTDPDLILEVLH [R24H] | 1.75
WTVANMEEIKKLTTDPDLILEVLS [R24S] | 2.27
WTVANMEEIKKLTTDPDLILEVLG [R24G] | 2.65
WTVANMEEIKKLTTDPDLILEVLM [R24M] | 1.47
WTVANMEEIKKLTTDPDLILEVLC [R24C] | 2.3
WTVANMEEIKKLTTDPDLILEVLK [R24K] | 1.82
WTVANMEEIKKLTTDPDLILEVLN [R24N] | 2.48
WTVANMEEIKKLTTDPDLILEVLL [R24L] | 1.12
WTVANMEEIKKLTTDPDLILEVLV [R24V] | 1.83
WTVANMEEIKKLTTDPDLILEVLQ [R24Q] | 2.38
WTVANMEEIKKLTTDPDLILEDLR [V22D] | 3.77
WTVANMEEIKKLTTDPDLILECLR [V22C] | 2.86
WTVANMEEIKKLTTDPDLILEWLR [V22W] | 2.33

Variant | protein stability index
WTVANMEEIKKLTTDPDLILEHLR [V22H] | 3.48
WTVANMEEIKKLTTDPDLILETLR [V22T] | 2.25
WTVANMEEIKKLTTDPDLILENLR [V22N] | 3.25
WTVANMEEIKKLTTDPDLILESLR [V22S] | 2.56
WTVANMEEIKKLTTDPDLILEQLR [V22Q] | 3.18
WTVANMEEIKKLTTDPDLILELLR [V22L] | 2.34
WTVANMEEIKKLTTDPDLILEGLR [V22G] | 2.48
WTVANMEEIKKLTTDPDLILEYLR [V22Y] | 2.64
WTVANMEEIKKLTTDPDLILEALR [V22A] | 2.79
WTVANMEEIKKLTTDPDLILERLR [V22R] | 2.48
WTVANMEEIKKLTTDPDLILEMLR [V22M] | 1.91
WTVANMEEIKKLTTDPDLILEILR [V22I] | 2.14
WTVANMEEIKKLTTDPDLILEPLR [V22P] | 2.23
WTVANMEEIKKLTTDPDLILEELR [V22E] | 3.59
WTVANMEEIKKLTTDPDLILEFLR [V22F] | 2.77
WTVANMEEIKKLTTDPDLILEKLR [V22K] | 3.3
WTVANMEEIKKLTTDPALILEVLR [D17A] | 2.09
WTVANMEEIKKLTTDPWLILEVLR [D17W] | 1.49
WTVANMEEIKKLTTDPYLILEVLR [D17Y] | 1.53
WTVANMEEIKKLTTDPGLILEVLR [D17G] | 1.51
WTVANMEEIKKLTTDPVLILEVLR [D17V] | 1.98
WTVANMEEIKKLTTDPELILEVLR [D17E] | 1.79

Variant | protein stability index
WTVANMEEIKKLTTDPHLILEVLR [D17H] | 1.88
WTVANMEEIKKLTTDPMLILEVLR [D17M] | 2.16
WTVANMEEIKKLTTDPLLILEVLR [D17L] | 1.52
WTVANMEEIKKLTTDPILILEVLR [D17I] | 1.25
WTVANMEEIKKLTTDPFLILEVLR [D17F] | 1.77
WTVANMEEIKKLTTDPQLILEVLR [D17Q] | 2.32
WTVANMEEIKKLTTDPKLILEVLR [D17K] | 2.05
WTVANMEEIKKLTTDPPLILEVLR [D17P] | 2.2
WTVANMEEIKKLTTDPTLILEVLR [D17T] | 1.77
WTVANMEEIKKLTTDPCLILEVLR [D17C] | 1.44
WTVANMEEIKKLTTDPNLILEVLR [D17N] | 1.93
WTVANMEEIKKLTTDPSLILEVLR [D17S] | 2.02
WTVANMEEIKKLTTDPRLILEVLR [D17R] | 1.86
WTVANMEEIKKLTTDPDLALEVLR [I19A] | 2.49
WTVANMEEIKKLTTDPDLMLEVLR [I19M] | 2.73
WTVANMEEIKKLTTDPDLYLEVLR [I19Y] | 2.67
WTVANMEEIKKLTTDPDLSLEVLR [I19S] | 3.09
WTVANMEEIKKLTTDPDLWLEVLR [I19W] | 2.47
WTVANMEEIKKLTTDPDLRLEVLR [I19R] | 3.21
WTVANMEEIKKLTTDPDLQLEVLR [I19Q] | 3.12
WTVANMEEIKKLTTDPDLGLEVLR [I19G] | 2.26
WTVANMEEIKKLTTDPDLTLEVLR [I19T] | 2.96

Reference: the supplement of paper PMC10567573
